From the nanobody polyreactivity screen of Harvey et al. (2022)

Assay: yeast display, Sf9 membrane polyspecificity reagent, FACS + sequencing; frameworks hold sequencing errors
How it was run: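 Sorting gates, low and high (top ~1%), were placed on anti-HA fluorescence to track expression and on streptavidin fluorescence to track reagent binding. A clone's polyreactivity label is taken from the gate it came out of. The reagent was 10% biotinylated, detergent-solubilized Sf9 membrane, applied for 1 hour at 4 °C to galactose-induced yeast display cells.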

Sequence	polyreactivity (PSR sort gate)
QVQLVESGGGLVQAGGSLRLSCAAAGIISPFYAMGWYRQAPGKERELVADISTGGTTTYADSVKGRFTISRDNAKNTVYLQMNSLKPVDTAVYYCNAEVCLTYYWIVWASYDYWGQGTQVTVSS	low polyreactivity
QVQLVESGGGLVQAGGSLRLSCAAAGLISIRILMGWYRQAPGKERELVAGITSTGSTSYADSVKGRFTSSRDNAKNTVYLQMNSLKPEDTAVYYCNTKGSRPGIWPTTSGYWGHGTQVTVSS	high polyreactivity
QVQLVESGGGLVQAGGSLRLSCAAAGNTIRVNAMGWYRHAHGKERELVAAISFSGGRTYYADSVKGRFTISRDNAKNTVYLQMNSLKPEDTAVYYCAALRRYPRPNIYGYWGQGTQVTVSS	low polyreactivity
QVQLVESGGGLVQAGGSLRLSCAAAGRTFYNYAMGWYRQAPGKERELVAAIDWGSDSTYYADSVKGRFTISRDNAKNTVYLQMNSLKPEDTAVYYCAKRPKNKPVLGDYDHWGQGTQVTVSS	low polyreactivity
QVQLVESGGGLVQAGGSLRLSCAAAGSTFRYNDMGWYRQAPGKERELVAAITRSGGSTYYADSVKGRFTISRDTAKNTVYLQMNSLKPEDTAVYYCNRGLRYVLAEDIAVPRVPEYYWGQGTQVTVSS	low polyreactivity
QVQLVESGGGLVQAGGSLRLSCAACGFIFYINTMGWYRQAPGKERELVAAISQSGVGTSYADSVKGRFTISRDNAKNTVYLQMNSLKPEDTAVYDCATDFARSDVVDRFAYWRQGTQVTVSS	low polyreactivity
QVQLVESGGGLVQAGGSLRLSCAACGFSFWRNAMGRTRRAPGKDRELVAAISASGGSTYYADSVKGRFTISRDNATNTVFLQRNSLKPEDTAVYYCAADTQGFYRYDYWGQGTQVTVSS	low polyreactivity
QVQLVESGGGLVQAGGSLRLSCAACGRTFFPYAIGWYRQAPGKERELVAAITTGDITNYADSVKGRFTISRDNAKNTVYLQMNSLKPEDTAVNYCAARGYASWSYGGYPLKLDYWGQGTQVTVSS	low polyreactivity
QVQLVESGGGLVQAGGSLRLSCAACGSIVVGYAMGWYRQAPGKERELVAVITSDGSTNYADSVKGRFTISRDNAKHTVYLPMNSLKPEDTAVYYCAADPWLGTGRYDYWGQGTQVTVST	low polyreactivity
QVQLVESGGGLVQAGGSLRLSCAACGTIFRRYATGSYRQAPGKERELVAAISSGGSTYADSVKGRFTISRDNAKNTVYFQMNSLKPEDTAVYYCAAYYQLGRHPGTPNGYDYWGHGTQVTVSS	low polyreactivity
QVQLVESGGGLVQAGGSLRLSCAACVFIFSRYAMGWYRQAPGKERELVAAISRGGSTNYADSVKGRFTISRDNAKNTVYLQMNSLKPEDTAVYYCAVRQNVRYYYWGQGTQVTVSS	high polyreactivity
QVQLVESGGGLVQAGGSLRLSCAAPGSIFYPNAMGWYRQAPGKEREFVAAITKRGGSTYYADSVKGRFTISRDNAKNTVYLQMNSLKPEDTAVYYCAGERSYPRAGRYNYWGQGTQVTVSS	low polyreactivity
QVQLVESGGGLVQAGGSLRLSCAASAFIFISYAMGLYRQAAGKERELVAAISSSGVSTYSADSVKGRFTISRDNAKNTVYLQMNSLKPEDTAVYYCAARQQVRLRQGPLYYYWGQGTQVTVSS	high polyreactivity
QVQLVESGGGLVQAGGSLRLSCAASAFIFSGNAMGWNRQAPGKERELVAAISGRGGRTYYADSVKGRFTISRDNAKNTVYLQMNSLKPEDTAVYYCAADNPYLGRKFDYWGQGTQVTVSS	high polyreactivity
QVQLVESGGGLVQAGGSLRLSCAASAFTFRYNAMGWYRQAPGKERELVATIDWSGGRTYYADSVKGRFTISRDNAKNTVYLQMNSLKPEDTAVYYCNAAALFRYYVRWKSAYDYWGQGTQVTVSS	high polyreactivity
QVQLVESGGGLVQAGGSLRLSCAASAFTLLSYAMGWYRQAPGKDRELVASITQRGGSTYYADSVKGRFTISRDNAKNTVDLQMNSLKPEDTAVYYCAARSGYGYRYYYWGQGTQVTVSS	low polyreactivity
QVQLVESGGGLVQAGGSLRLSCAASAGIFRYYAMGWYRQAPGKERELVAAITSSGTSTYYADSVKGRFTISRDNAKNTVYLQMNSLKPEDTAVYYCAATRTKRKFDYWGQGTQVTVSS	high polyreactivity
QVQLVESGGGLVQAGGSLRLSCAASAIIFAQYTMGWNRQAPGKERELVAAINRNGGSTYYADSVKGRFTISRDNAKNTVYLQMNSLKPEDTAVYYCNADALGFRYDYWGQGTQVTVSS	low polyreactivity
QVQLVESGGGLVQAGGSLRLSCAASAITFFNNAMGWYRPATGKERELVADITYSGSTYYADSVKGRFTISRDNAQNSVYLQMNSLKPEDTAVYYCSAGHAYDYFVYYPDDYWGQGTQVTVSS	low polyreactivity
QVQLVESGGGLVQAGGSLRLSCAASAITYAYYPMGWYRQAPGKETELVAGITDVGSTNYADSVKGRFTLSRDNAKNTVYLQMNSLKPEDTAGYYCAAEYDGPYYSFYPEQRYYWGQGTQVTVSS	low polyreactivity
QVQLVESGGGLVQAGGSLRLSCAASARIQDKYARGWYRQAPGKERELVARIRFSGGDTYADSVKGRFTISRDNAKNTVYLQMNSLKPEDTAVYYCNKDRRNRWYAFDYWGQGTQVTVSS	low polyreactivity
QVQLVESGGGLVQAGGSLRLSCAASARNFYANVMGWYRQAPGKEREFVAAIRWSGGRTYYADSVKGRFTISRDNAKNTVYLQMNSLKPEDTAVYYCAADPWDYISYYIYDYWGQGTQVTVSS	low polyreactivity

Sequence	polyreactivity (PSR sort gate)
QVQLVESGGGLVQAGGSLRLSCAASARTFGVYAMGWYRQAPGKERELVAAISKSDGSTYYADSVKGRFTISRDNAKITVYLQMNSLKPEDTAVYYCATVTLHQRDTQDDFWGQGTQVTVSS	low polyreactivity
QVQLVESGGGLVQAGGSLRLSCAASARTFYRYAMGWYRQAPGKERELVAAITRRSGNTYYADSVKGRFTISRDNAKNTVYLQMNSLKPEDTAVYYFNTVYPRRLIFGYWGQGTQVTVSS	high polyreactivity
QVQLVESGGGLVQAGGSLRLSCAASASIFLEYAMGWYRQAPGKERELVAGITISGGSTYYADSVKGRFTISRDNAKNTVYLQMNSLKPEDSAVYYCAKVAPRSSSSLEYYYWGQGTQVTVSS	low polyreactivity
QVQLVESGGGLVQAGGSLRLSCAASASIFPRNTMGWYRPAPGKERELVAAISRSGGSTYYADSVKGRFTISRDNAKNTVYLQMNSLKPEDTAVYYCAVSGGTSRRYYYWGQGTQVTVSS	high polyreactivity
QVQLVESGGGLVQAGGSLRLSCAASASIFSVYAMGWYRQAPGKERELVAAITRSGARTYYADSVKGRFTISRDNAKNTVYLQMNSLKPDDTAVYYCAADDPGYNQVEYWGQGTQVTVSS	high polyreactivity
QVQLVESGGGLVQAGGSLRLSCAASASTFRPYAMGWFRQAPGKEREFVASITWRGGGTYYADSVKGRFTISRDNAKNTVYLQMNSLKPEDTAVFSCAAATQVRGNSLPYGYWGQGTQVTVSS	high polyreactivity
QVQLVESGGGLVQAGGSLRLSCAASASTFVSNAMGWYRQAPGKERELVAAISKSGGSTYYADSVKGRFTISRDNAKNTVYLEMNSLKPEDTAVYYCSKYTAISFYGQYDYWGQGTQVTVSS	high polyreactivity
QVQLVESGGGLVQAGGSLRLSCAASATFYYYAMGWSRQAPGKERELVAAISYSGGRTYYADSVKGRFTISRDNAKNTVYLQMNSLKPEDTAVYYCNALYRKTPSYGADDYWGQGTQVTVSS	high polyreactivity
QVQLVESGGGLVQAGGSLRLSCAASAWYAMGWYRQAPGKEREFVAAITFSGSSTYYADSVKGRFTISRDNAKNTVYLQMNSLKPEDTAVYYCNADWWEWGQGTQVTVSS	low polyreactivity
QVQLVESGGGLVQAGGSLRLSCAASGAIFVPYAMGWYRQAPGKERELVAAITYSDGSTYYADSVKGRFTISRDNAKNTVYLQMNSLKPEDTAVYYCAAEWIEFPDPVSWYYYTPYYYWGQGTQVTVSS	high polyreactivity
QVQLVESGGGLVQAGGSLRLSCAASGATFGYYGMGWYRQAHGTERELVAAISTRGDSTYYADSVMGRFTISRDNAKNPVYLQMHSLKPEDPAGYYCAKSRQSSGRVRFDYWGQGTQVTVSS	low polyreactivity
QVQLVESGGGLVQAGGSLRLSCAASGATFTFYAMGWYRQAPGKERELVATINWSGGSTYYADSVKGRFTISRDNSKYTVYLQMNSMKPEDTAVFYCNAACPFKSVEYWGQGTQVTVSS	low polyreactivity
QVQLVESGGGLVQAGGSLRLSCAASGCIFFQYAMGWYIQAPGKERELVAAISGSGVTTYYADSVKGRFTISRDNAKNTVYLQMNSLKPEDTAVYYCNAALRWKYDWGQGTQVTVSS	low polyreactivity
QVQLVESGGGLVQAGGSLRLSCAASGCIFRYYAKGWYRQPPGKERELVPVISSNGARTSYADSVKGRFTISRDNATYTVYLQMNSLKPEDTAVYYCNARAWSRFPPVGHDDWGQGTQVTVSS	high polyreactivity
QVQLVESGGGLVQAGGSLRLSCAASGCIFVRYAMGWYRQAPGKERELVAAISRSGGSTSYADSVKGRFTISRDNAKNTVYLQMNSLKPEDTAVYYCAVVRGGRGYPGYDYWGQGTQVTVSS	low polyreactivity
QVQLVESGGGLVQAGGSLRLSCAASGCTFPLYAMGWYRPAPGKERELVAAITSGGGNTYYADSVKGRFTISRDNAKNTVYLQMNSLKPEDTAVYYCAAVGGYKSYYSYEYDYWGQGTQVTVSS	low polyreactivity
QVQLVESGGGLVQAGGSLRLSCAASGCTFQTYAMGWYRQAPGKERELVAGITAGGSTNYADSVKGRFSISRDNAKNTVYLQMNSLKPEDTAVYYCAVRQISQTSDHRLQYDYWGQGTQVNVSS	low polyreactivity
QVQLVESGGGLVQAGGSLRLSCAASGFAFSYYAMGWSRQAPGKEREFVASIDWSGGSTYYADSVKGRFTISRDNAKNTVYLQMNSLKPEDTAVYYCAAELDYFPGYDYWGQGTQVTVSS	low polyreactivity
QVQLVESGGGLVQAGGSLRLSCAASGFAFSYYAMGWYIPAPGKEREFVASIDWSGGSTYYADSVKGRFTISRDNAKNTVYLQMNSLKPEDTAVYYCAAELDYFPGYDYWGQGTQVTVSS	low polyreactivity
QVQLVESGGGLVQAGGSLRLSCAASGFAFSYYAMGWYRQAPGKEREFVASIDWSGGSTYYADSVKGRFTISRDIAKTTVYLQMNRLKPEDTAVYYCAAELDYFPGYDYWGQGTQVTVSS	low polyreactivity
QVQLVESGGGLVQAGGSLRLSCAASGFICAQNAMGWYRQAPGKERELVADISGRGGRTYYADSVKGRFTISRDNAKNTVYLQMNSLKPEDTAVYYCAKDTYLQIYQYGYWGQGTQVTVSS	high polyreactivity
